Target: Hsf1-StrepTag II;Ssa1 (Hsp70) (Saccharomyces cerevisiae;Saccharomyces …, UniProt P10961;P10591 1-833;1-642, |)
Assay: EMSA; 0.25 uM complex, 0.05 uM probe; 10 mM Tris-HCl pH 7.5, 50 mM KCl, 2.5 mM DTT, 0.25% Tween 20, 20 min at 20 C; 6% DNA retardation gel in TBE (modified: 1 mM MgCl2, no DTT listed, 0.7% agarose)
Details: protein: recombinant;recombinant; tags: C-terminal StrepTag II;6xHis-SUMO removed by Ulp1; chain copies: 3;1; blunt

Chain of Hsf1-StrepTag II;Ssa1 (Hsp70) (P10961 whole entry, chain 1 of 2): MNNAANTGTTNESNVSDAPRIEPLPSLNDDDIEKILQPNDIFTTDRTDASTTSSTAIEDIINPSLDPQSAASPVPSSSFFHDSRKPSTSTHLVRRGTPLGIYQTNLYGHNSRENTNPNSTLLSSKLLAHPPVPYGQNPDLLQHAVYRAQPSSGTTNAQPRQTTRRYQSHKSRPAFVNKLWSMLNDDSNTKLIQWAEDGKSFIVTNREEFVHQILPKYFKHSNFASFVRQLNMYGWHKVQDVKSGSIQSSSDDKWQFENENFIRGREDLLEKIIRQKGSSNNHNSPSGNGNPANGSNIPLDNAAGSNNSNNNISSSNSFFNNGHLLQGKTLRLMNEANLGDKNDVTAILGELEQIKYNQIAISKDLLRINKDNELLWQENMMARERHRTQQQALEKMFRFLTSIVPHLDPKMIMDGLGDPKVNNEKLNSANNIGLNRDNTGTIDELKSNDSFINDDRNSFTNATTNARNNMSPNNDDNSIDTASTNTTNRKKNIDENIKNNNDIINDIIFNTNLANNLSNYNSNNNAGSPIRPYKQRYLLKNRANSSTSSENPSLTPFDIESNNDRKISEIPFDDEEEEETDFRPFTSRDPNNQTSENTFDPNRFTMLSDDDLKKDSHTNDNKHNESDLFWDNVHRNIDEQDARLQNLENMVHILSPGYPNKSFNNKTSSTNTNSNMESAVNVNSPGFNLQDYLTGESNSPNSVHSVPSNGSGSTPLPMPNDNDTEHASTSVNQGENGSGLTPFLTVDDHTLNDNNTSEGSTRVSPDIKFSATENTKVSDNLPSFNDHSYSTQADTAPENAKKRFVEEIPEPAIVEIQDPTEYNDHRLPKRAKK
Chain of Hsf1-StrepTag II;Ssa1 (Hsp70) (P10591 whole entry, chain 2 of 2): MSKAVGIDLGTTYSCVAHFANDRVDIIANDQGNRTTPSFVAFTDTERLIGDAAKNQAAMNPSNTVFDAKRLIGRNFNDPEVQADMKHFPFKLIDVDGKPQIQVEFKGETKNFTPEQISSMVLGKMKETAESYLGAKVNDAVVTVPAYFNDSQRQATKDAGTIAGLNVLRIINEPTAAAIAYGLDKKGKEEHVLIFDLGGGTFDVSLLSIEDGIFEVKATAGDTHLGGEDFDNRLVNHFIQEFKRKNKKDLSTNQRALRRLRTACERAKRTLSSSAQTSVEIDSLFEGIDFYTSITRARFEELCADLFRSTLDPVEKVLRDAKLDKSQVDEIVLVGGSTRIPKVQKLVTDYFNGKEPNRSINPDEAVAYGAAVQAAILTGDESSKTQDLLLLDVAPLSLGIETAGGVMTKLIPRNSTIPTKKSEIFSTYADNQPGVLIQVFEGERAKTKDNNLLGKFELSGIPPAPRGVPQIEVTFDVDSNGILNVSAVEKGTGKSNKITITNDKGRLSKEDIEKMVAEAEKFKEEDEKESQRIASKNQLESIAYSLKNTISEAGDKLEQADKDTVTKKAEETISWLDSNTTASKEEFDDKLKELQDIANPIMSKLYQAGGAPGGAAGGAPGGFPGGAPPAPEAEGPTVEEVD

B1: HSE-DY682 (dsDNA)
DNA 1: TCGATTTTCCAGAACGTTCCATCGGC
DNA 2: GCCGATGGAACGTTCTGGAAAATCGA
- binding result: binds

Source: publication PMC6779467, “Cytoplasmic protein misfolding titrates Hsp70 to activate nuclear Hsf1”
